Measurements from patent US20200172626A1 (EUTILEX, published 2020).
Substitutions are numbered along the chain they refer to. Blank lines part the entries; values can stand above or below the binder they belong to.

Tests used:
[1] = molecular target: T1, human 4-1BB expressed on cells (human, UniProt Q07011 24-255); assay: cell-based or functional assay
[2] = molecular target: T1, human 4-1BB expressed on cells; assay: FACS on anti-CD3-activated human CD8+ T cells, antibody at 25 ng/ml
Protocol: CD8⁺ T cells were isolated from human PBMCs and activated with 1 μg/ml anti-CD3 antibody for 2 day. The ability of exemplary humanized anti-human 4-1BB antibodies (94K, 94 KV, 94KVT and EU101) described in Example 1 to detect a 4-1BB on the surface of activated […] T cells was assessed relative to an exemplary commercially available anti-4-1BB antibody (4-1BB-PE). Also shown is detection with a BBK-4 a murine anti-human 4-1BB antibody and a 94G1 reference humanized antibody. Treatment with 4-1BB antibodies was at a concentration of 25 ng/ml.
Exemplary antibodies were detected with an anti-mIgG-Dylight488 or anti-hIgG-Dylight488 as appropriate, and analyzed by FACS.

[3] = molecular target: T2, human 4-1BB antigen (H4-1BB) (human, UniProt Q07011 24-186, limits assumed); assay: ELISA of Fab in E. coli supernatant, binding divided by expression level; data not shown
Protocol: ELISA was performed the following day on a supernatant obtained by centrifugation at 12,000 rpm for 10 minutes at 4° C.
A Fab antibody prepared by substituting the constant heavy chain of pCOM-Fab94G1-L with the heavy chain of the backbone 94G1 on the improved 94G1 light chain was called 94/w. Thus, a 94/w variant includes an improved 94G1 light chain in which the 6th amino acid of LCDR3 is substituted with tryptophan (W) ([…]—SEQ ID NO: 4) and a 94G1 heavy chain. IPTG-induced expression in E. coli and ELISA of a 94/w Fab was used to determine binding affinity as described above. Using this method, it was determined that a 94/w Fab antibody has a binding activity 3.5 times higher than that of 94G1 (Fab antibody) (data not shown).

[4] = molecular target: T3, GST-4-1BB ECD fragment R2 fusion polypeptide (human, UniProt Q07011 76-130); assay: western blot on GST fusion polypeptides
T3 construct: not shown: GST carrier at the N end (pGEX-6T, 27 kDa) and the vector-derived junction residues
Protocol: Purified protein samples were obtained from transformed bacterial cells by a lysis buffer (e.g., 10 mM Tris-HCl—pH 7.4, 50 mM NaCl, 5 mM EDTA, 30 mM NaF, 0.1 mM Na3VO4, 1% Triton X-100, 0.5% Nonidet P-40, 1 mM PMSF, and protease inhibitor mixture). Approximately 20 μg of each fusion polypeptide sample was diluted in a 4×SDS sample buffer, subjected to electrophoresis on SDS-PAGE gels, and then transferred to nitrocellulose membranes (Millipore, Bedford, Mass.). On the cellulose membranes, anti-human 4-1BB mAb was reacted with anti-mouse IgG horseradish […] (HRP). Binding antibodies were recognized by enhanced chemiluminescence (ECL) (Amersham Pharmacia Biotech, Little Chalfont, UK).
As described above and shown in FIG. 1B, when each of three non-overlapping H4-1BB ECD fragment-GST fusion polypeptides, R1, R2, and R3, were treated with GST-binding, respectively. It was determined that an exemplary humanized anti-4-1BB antibody encompassed by the present disclosure (EU101) binds to an N-terminal fragment construct (R1) fusion construct of approximately 32 kDa (amino acids 1 to 55 of 4-1BB) by western blotting.

[5] = molecular target: T4, GST-4-1BB ECD fragment R1.1 fusion polypeptide (human, UniProt Q07011 21-65); assay: western blot on E. coli whole cell extracts (FIG. 2B)
T4 construct: not shown: GST carrier at the N end (pGEX-6T, 27 kDa) and the vector-derived junction residues
T4 chain: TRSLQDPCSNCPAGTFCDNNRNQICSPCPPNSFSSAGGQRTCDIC
Protocol: (§1) FIG. 2A depicts an SDS-PAGE gel of whole cell extracts from cells expressing 4-1BB ECD fusion constructs. Fusion constructs as described above in FIG. 2A were expressed in E. coli BL21 cells induced with 1 mM IPTG, and whole cell extracts resolved by 12% SDS-PAGE. As shown, all fusion constructs (ECD, R1, R1.1, R1.2, R1.3, R1.4, R1.5, and R1.6) have robust protein expression. FIG. 2B depicts a western blot showing binding of an exemplary humanized anti-4-1BB antibody to full length 4-1BB ECD fusion polypeptide, and R1.1, R1.2, R1.3, and R1.6 fusion polypeptides, but not to the R1.4 or R1.5 fusion polypeptides. Immunoblots were performed with an exemplary anti-human 4-1BB antibody. Molecular size markers are indicated in kDa on the left.
(§2) SDS-PAGE was transferred to a nitrocellulose membrane and immunoblotting was performed using an exemplary anti-human 4-1BB antibody, EU101. […] It was also confirmed that a sequence including amino acids 35 to 50 of the 4-1BB extracellular domain is […] for binding an exemplary humanized antibody described herein (FIG. 2B).

[6] = molecular target: T5, GST-4-1BB ECD fragment R1.2 fusion polypeptide (human); assay: as above
T5 construct: not shown: GST carrier at the N end (pGEX-6T, 27 kDa) and the vector-derived junction residues
T5 chain: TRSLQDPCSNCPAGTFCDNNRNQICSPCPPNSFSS
Protocol: as §1, §2

[7] = molecular target: T6, GST-4-1BB ECD fragment R1.3 fusion polypeptide (human, UniProt Q07011 31-75); assay: as above
T6 construct: not shown: GST carrier at the N end (pGEX-6T, 27 kDa) and the vector-derived junction residues
T6 chain: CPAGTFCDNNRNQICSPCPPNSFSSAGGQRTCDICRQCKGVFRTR
Protocol: as §1, §2

[8] = molecular target: T7, GST-4-1BB ECD fragment R1.6 fusion polypeptide (human, N-terminal GST fusion, not written); assay: as above
T7 construct: not shown: GST carrier at the N end (27 kDa, pGEX-6T) and the vector-derived residues at the BamHI/XhoI junctions
T7 chain: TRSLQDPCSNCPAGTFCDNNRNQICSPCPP
Protocol: as §1, §2

[9] = molecular target: T8, GST-4-1BB ECD fragment R1.4 fusion polypeptide (human); assay: western blot on E. coli whole cell extracts with GST fusion polypeptides
T8 construct: not shown: GST carrier at the N end (pGEX-6T, 27 kDa) and the vector-derived junction residues
T8 chain: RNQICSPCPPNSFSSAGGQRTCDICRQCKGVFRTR
Protocol: as §1, §2

[10] = molecular target: T2, human 4-1BB antigen (H4-1BB); assay: SPR (Biacore 3000, CM5 chip), antibody captured on immobilized anti-human IgG, human 4-1BB antigen (H4-1BB) flowed over
Source text: In vitro binding affinity of exemplary engineered antibody EU101 as described in Example 1, along with that of a reference 94G1 humanized antibody were each determined by Biacore analysis. Anti-human IgG was immobilized on a CM5 chip, and coupled to the Fab antibodies prepared above by flowing over the chip, and ultimately reacted with a human 4-1BB antigen (H4-1BB) to measure the binding activity between the antibody and the antigen (Biacore3000, sensor chip CM5). Ka (1/Ms) and Kd (1/s) values represent how fast an antibody associates with and dissociates from an antigen, respectively. A dissociation constant (KD) is obtain by dividing Kd by Ka (Kd/Ka=[…]).

T1 sequence (Q07011 24-255 limits assumed): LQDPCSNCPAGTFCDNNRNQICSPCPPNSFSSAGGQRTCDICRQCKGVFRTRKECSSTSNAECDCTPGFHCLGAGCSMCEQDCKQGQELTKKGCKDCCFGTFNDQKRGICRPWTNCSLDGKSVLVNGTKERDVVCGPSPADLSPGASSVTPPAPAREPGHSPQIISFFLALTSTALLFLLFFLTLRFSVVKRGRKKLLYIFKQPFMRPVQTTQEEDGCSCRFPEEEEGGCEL

- IFNgamma secretion by anti-CD3-treated CD8+ T cells, 1.0 ug/ml antibody, day 5, against the control group [1]: 13 fold
- percent of CD8+ T cells on which 4-1BB was detected [2]: 25.3%
B1: 94KVT (full length 94KVT/w antibody) (antibody, human IgG1)
heavy: not shown
VL: DIVMTQSPAFLSVTPGEKVTITCRASQTISDYLHWYQQKPDQAPKLLIKYASQSISGIPSRFSGSGSGTDFTFTISSLEAEDAATYYCQDGHSWPPTFGQGTKLEIK
notes: Full length IgG1

- binding activity as fold of 94G1 (Fab antibody) [3]: 3.5 fold
B2: 94/w Fab antibody (Fab, V domains shown)
VH: QVQLQQSGAEVKKPGASVKLSCKASGYTFSSYWMHWVRQAPGQGLEWIGEINPGNGHTNYNEKFKSRATMTRDTSTSTAYMELSSLRSEDSAVYYCARSFTTARAFAYWGQGTLVTVSS
VL: B1 VL
notes: Fab expressed in E. coli TG1 from a pComb3H-derived vector and tested as culture supernatant; also called 941w

- IFNgamma secretion by anti-CD3-treated CD8+ T cells, 1.0 ug/ml antibody, day 5, against the control group [1]: 13 fold
- binding result [4]: no binding
- binding result [5]: binds
- binding result [6]: binds
- binding result [7]: binds
- binding result [8]: binds
- percent of CD8+ T cells on which 4-1BB was detected [2]: 28.3%
- binding result [9]: no binding
- Kd [10]: 0.0636 nM
- koff [10]: 1.8e-05 s⁻¹
B3: EU101 (antibody, human IgG1, L234A L235A)
heavy: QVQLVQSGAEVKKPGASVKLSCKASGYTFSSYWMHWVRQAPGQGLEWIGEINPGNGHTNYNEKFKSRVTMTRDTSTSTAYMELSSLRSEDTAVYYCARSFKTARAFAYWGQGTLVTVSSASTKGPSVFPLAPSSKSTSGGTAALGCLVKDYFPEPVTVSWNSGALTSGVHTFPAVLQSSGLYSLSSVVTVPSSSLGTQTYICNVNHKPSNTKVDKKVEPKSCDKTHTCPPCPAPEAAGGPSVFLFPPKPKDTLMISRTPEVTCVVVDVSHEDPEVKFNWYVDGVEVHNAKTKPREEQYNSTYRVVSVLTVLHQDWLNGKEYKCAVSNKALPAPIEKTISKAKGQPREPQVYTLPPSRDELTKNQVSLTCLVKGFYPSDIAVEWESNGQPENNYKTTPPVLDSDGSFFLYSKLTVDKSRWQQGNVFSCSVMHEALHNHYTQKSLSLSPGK
VL: B1 VL
notes: Full length antibody with the 94KVT/w variable domains and a variant IgG1 constant domain; The light chain constant domain is not tied to EU101; also called exemplary humanized anti-4-1BB antibody; exemplary anti-human 4-1BB antibody (EU101)

- percent of CD8+ T cells on which 4-1BB was detected [2]: 17.9%
- Kd [10]: 0.602 nM
- koff [10]: 0.000118 s⁻¹
B4: 94G1 reference humanized anti-human 4-1BB antibody (antibody, V domains shown)
VH: B2 VH
VL: B1 VL with W94F
